{
  "source": "the DeepSol protein solubility set",
  "data": [
    {"assay": "soluble on expression in E. coli; label from the status in PepcDB or PDB records", "values": [
      {"sequence": "MSTIAKDQTQINDKIRAKELRLIGQDGEQIGVKSKREALEMAERVDLDLVVVAPNAKPPVARIMDYGKFKFEQQKKEKEMKKKQKIINVKEIRLSPTIEEHDFQTKLKNGRKFLTKGDKCKVSIRFRGRAITHKEIGQRVLEKYADECKDIATVEQKPKMDGRQMFIMLAPTAEK", "soluble on expression in E. coli": "not soluble"},
      {"sequence": "MGSDKIHHHHHHMTKLYEPFYRLTIELTECEREIIGSRPFKRLAHLHHYGAAALRTPVTHSRYEHTIGVWSLTAHFFPSDQLLRLVALLHDIGHLPFSHAVEQPLGFNHHLLTERLIESQEVAKILKKHGFIPQDVIRRLNENTPVSNQEKLLSLDHLDSFLRDTTLAGTCSLIPHESLGRLSVRGNGIETDEETALLLASCIVKDHELFLDPFNLAMDALLAEAITLYMADKPLVSMENIPHMTDDEVLTLLRGSWNKKVHAHLKLLFSQQPTLVQTDDESSAKLTVTVRKVYEDRPLIRHGTAKGREMVEKKLAELQELKGRFSFVY", "soluble on expression in E. coli": "not soluble"},
      {"sequence": "MLIPWQDLSPETLENLIESFVLREGTDYGEHERTLEQKVADVKRQLQCGEAVLVWSELHETVNIMPRSQFRE", "soluble on expression in E. coli": "soluble"},
      {"sequence": "MGDVQMGNCLRIPSANMAPALPEHGTAEASTSNPMPHAGNMTAGPQEHTAVEGCAGRQIADMWLSSLERPARRPSGSRSQPTAQSRPQSKLEKLTEQRQSMLQRAIILEDQWRSLQERCARTSVGGRQAFNLDILKGIIDRDKQALERMGGEGSYIAERHLHRIERTLQDFEKKISNQKKLQSHLAKANDFLARLKLLKDELSSRGENKDILNDIDLNIKDLEGILNELTRIEANGAGIQYDGCRGGAIAYFDSVTISLEAMLRSQDSGYFDYMRPALANVLQDGYSPSRRKAVSDAGMRGGASDGIS", "soluble on expression in E. coli": "not soluble"},
      {"sequence": "MLKLARPFIPPLSRNNAISSGIVLTSRRFQSSFTFLSNQSLLSKNQMKSKRKKGSKKAAYHRQPPEHEHTAPLIKQNKTITKKEHSDVRGSHLKKKRSDFSWLPRVPSTSHLKQSDMTTNVLYSGYRPLFINPNDPKLKEDTGSTLYEFAMKLEDLNEPLSPWISSATGLEFFSEWENIPSELLKNLKPFHPPKEKSMNTNELIHVSAKRNTLVDNKTSETLQRKMDEFSKRRGKGRKKSVVTLLQMKKKLEG", "soluble on expression in E. coli": "not soluble"},
      {"sequence": "MAHHHHHHMLQNMSNILDRTCWSCFFFFLKRKYSYMRRGTSTYPTTGCPLKKHEGGSHCPRARNWTASAGDIVGNGRRAEVGLARLKS", "soluble on expression in E. coli": "not soluble"},
      {"sequence": "AVLLLGEVTNGALNRDATAKAVAAVKALGDVTVLCAGASAKAAAEEAAKIAGVAKVLVAEDALYGHRLAEPTAALIVGLAGDYSHIAAPATTDAKNVMPRVAALLDVMVLSDVSAILDADTFERPIYAGNAIQVVKSKDAKKVFTIRTASFDAAGEGGTAPVTETAAAADPGLSSWVADEVAESDRPELTSARRVVSGGRGLGSKESFAIIEELADKLGAAVGASRAAVDSGYAPNDWQVGQTGKVVAPELYVAVGISGAIQHLAGMKDSKVIVAINKDEEAPIFQIADYGLVGDLFSVVPELTGKL", "soluble on expression in E. coli": "soluble"},
      {"sequence": "MTDTNTLLVTSLEEGIGKTAITLALATRAHDAGYDVGYMKPKGTRLRSAVGKTRDEDPMLARELLDLETDLHDMEPIVYSPTFIQEAIRGREDPDDLRERLQEGIETCSDGTDMLLVEGSSDLATGSIVDLTDIDIAELLDARVLLVTGYDTPSDTDEILSAAEAIGDRLDGVLFNGVTDATVDELADDVVPFLEGEGIPVHGILPRDRSLAGVTVADLARNLGADILTGDANTDVHVERFSVGAMSGSSALERFRRTRDAVVVTGGDRSEVQTAALEASGINALLLTGGFQPASAVIGQAAEKNVPVLSVQSDTRTTIDRVEEVLRTGQTRNEATVDRMRTLLDDGVDVESLLSVDLLEHHHHHH", "soluble on expression in E. coli": "soluble"},
      {"sequence": "MAHHHHHHMRNIVQKYLQRNSTKLFNRTSVFNLYKKCNFSGYKIYSDGLVHSEFSTELKTVNEVIKMPIYRILDTNGHLLDGHEAPFKDEEVLKIYKDMVEFSIWDEIFYGIQRQGRISFYIVNEGEEGLQFGMGKALSVDDHLYCQYRETGVLLSRGFTYTDILNQLFGTKYDEGKGRQMCICYTKKDLNIHTITTPLGSQLSHAAGCGYALKLKNQKAVAVTYCGDGSSSEGDFYAALNFASVRQSQTMFVCKNNLYAISTSIKDQYRGDGIAPRALALGIESIRVDGNDLFASYLATKKLRDICIQESKPVFIEFMSYRYGHHSTSDDSSLYRPKEENEAWRQEGVHPISRIFLYLKNKNLYSEKEDQEHRKSVKENVLKELKKYESVKRYNIVGGLFEDVYHEEDWNIKEQRENFEQFFKENKHNYDTSKFER", "soluble on expression in E. coli": "soluble"},
      {"sequence": "SLERPPALAMPMPTEGTPPPLSGTPIPVPAYFRHAEPGFSLKRPRGLSRSLPPPPPAKGSIPISRLFPPRTPGWHQLQPRRVSFRGEASETLQSPGYDPSRPESFFQQSFQRLSRLGHGSYGEVFKVRSKEDGRLYAVKRSMSPFRGPKDRARKLAEVGSHEKVGQHPCCVRLEQAWEEGGILYLQTELCGPSLQQHCEAWGASLPEAQVWGYLRDTLLALAHLHSQGLVHLDVKPANIFLGPRGRCKLGDFGLLVELGTAGAGEVQEGDPRYMAPELLQGSYGTAADVFSLGLTILEVACNMELPHGGEGWQQLRQGYLPPEFTAGLSSELRSVLVMMLEPDPKLRATAEALLALPVLRQPRAWGVLWCMAAEALSRGWALWQALLALLCWLWHGLAHPASWLQPLGPPATPPGSPPCSLLLDSSLSSNWDDDSLGPSLSPEAVLARTVGSTSTPRSRCTPRDALDLSDINSEPPRGSFPSFEPRNLLSLFEDTLDPT", "soluble on expression in E. coli": "soluble"},
      {"sequence": "MSLGILEQLENPKFKATKSEKTLIEYIKSDLDNIIYKSISIIAKESGVGEATITRFTKKLGFNGFQDFKVTLAKEISNKKNTSIINLHVHRDESVTETANKMLKSSINILEQTVKQIDLDLMCKCRDLIMNAKRVYFIGIGYSGIAATDINYKFMRIGFTTVPVTDSHTMVIMSSITNDDDVIVAISNSGTTKEVIKTVKQAKENGTKIITLTEDSDNPLRKLSDYELTYTSAETIFETGSISSKIPQIFLLDLLYTEVIKEMFSEAVEKKIKTTSAILNEGHHHHHH", "soluble on expression in E. coli": "soluble"},
      {"sequence": "AGTYNYGEALQKSIMFYEFQRSGDLPADKRDNWRDDSGMKDGSDVGVDLTGGWYDAGDHVKFNLPMSYTSAMLAWSLYEDKDAYDKSGQTKYIMDGIKWANDYFIKCNPTPGVYYYQVGDGGKDHSWWGPAEVMQMERPSFKVDASKPGSAVCASTAASLASAAVVFKSSDPTYAEKCISHAKNLFDMADKAKSDAGYTAASGYYSSSSFYDDLSWAAVWLYLATNDSTYLDKAESYVPNWGKEQQTDIIAYKWGQCWDDVHYGAELLLAKLTNKQLYKDSIEMNLDFWTTGVNGTRVSYTPKGLAWLFQWGSLRHATTQAFLAGVYAEWEGCTPSKVSVYKDFLKSQIDYALGSTGRSFVVGYGVNPPQHPHHRTAHGSWTDQMTSPTYHRHTIYGALVGGPDNADGYTDEINNYVNNEIACDYNAGFTGALAKMYKHSGGDPIPNFKAIEKITNDEVIIKAGLNSTGPNYTEIKAVVYNQTGWPARVTDKISFKYFMDLSEIVAAGIDPLSLVTSSNYSEGKNTKVSGVLPWDVSNNVYYVNVDLTGENIYPGGQSACRREVQFRIAAPQGTTYWNPKNDFSYDGLPTTSTVNTVTNIPVYDNGVKVFGNEP", "soluble on expression in E. coli": "soluble"},
      {"sequence": "MQLDPGRGYDLIGDVHGCAHTLDRLLDLLGYRLQGGVWRHPRRQALFLGDIVDRGPRIREALHRVHAMVDAGEALCIMGNHEFNALGWSTPAAPGSGRQYVREHTPRHARLIKETLEQFEGHDADWRDFLGWFQQLPLFLDAGRFRMVHACWDGELIATLRRQFPDGRISEAFLQESAEPGSFADLACNRLLRGTDMRLPHGATLTSSDGYTRAFFRTKFWVEDEAPRTYGDIVFQPDALPEAIAREPLSEEQKSSLLTYGADEPLLFVGHYWRRGTPAPIRPNLACLDYSAVMYGKLAAYRLDEETRLDRHKFVWVEVKRPEADE", "soluble on expression in E. coli": "soluble"},
      {"sequence": "MSKKCLITGGAGFIGSHLAEELVGRGYNVTIVDNFYKGKNKYHDELMKEIRVIPISVLDKNSIYELVNQHDVVFHLAAILGVKTTMEKSIELIETNFDGTRNILQAALKGKKKVVFASTSEVYGKAKPPFSEEGDRLYGATSKIRWSYAICKTLEETLCLGYALEGLPVTIVRYFNIYGPRAKDGPYAGVIPRFISAALQGEDILVYGDGEQTRCFTYVSDAVEATIRAMDEKVNGEIINIGSENEKSIKEVAEVIKKLTDSSSKIVQVPFEEVYPHGFEEIPNRRPDVTKLKDLVQFQAKVTWEDGLKETIKWFREEDNG", "soluble on expression in E. coli": "soluble"},
      {"sequence": "MSSSHLAERHAFSDLSLLSEALAQSVTVTLRNAIERYGKASLVVPGGHTPVVYLPRLAQMDLPWQQVFITLSDERWVEPTSEQSNERLVREHFLQHMQQQPHFIALKTGHIHPDQAITDIDARLAELPQPFSLVILGLGEDGHIASLFPGMALNPDTTSLCQTATPPAAPSLRISLSLHALINSDRIILVITGKEKRQLIDRLIESPDQNIPFVRLMQFKPVELFETD", "soluble on expression in E. coli": "not soluble"},
      {"sequence": "MGSDKIHHHHHHMDRIIYTAGSGASQAMQQQSVVNHNLSNVSTPGFRAELDAMRAVPVQGDGRLATRTSVAATTSGTDFSPGYMNATGRRLDVAMQGDAFLAIQDPQGGEAYTRRGDLQVDADGMLTVKGEPVMGEQGPIVVPPDAEFSIGADGSISVLEAGANPDEIAPVGRLKLVTPDLQALTRGDDGWFRLPPGDDAEIAAPQPLDEDARLQSGVLEGSNVSATDAMVAMIDGARRYDMQMKVIESADQNAQRANSLLSVQA", "soluble on expression in E. coli": "not soluble"},
      {"sequence": "MGSDKIHHHHHHMPKIWTERIFDDPEIYVLRIDDDRIRYFEAVWEIPEGISYNAYLVKLNGANVLIDGWKGNYAKEFIDALSKIVDPKEITHIIVNHTEPDHSGSLPATLKTIGHDVEIIASNFGKRLLEGFYGIKDVTVVKDGEEREIGGKKFKFVMTPWLHWPDTMVTYLDGILFSCDVGGGYLLPEILDDSNESVVERYLPHVTKYIVTVIGHYKNYILEGAEKLSSLKIKALLPGHGLIWKKDPQRLLNHYVSVAKGDPKKGKVTVIYDSMYGFVENVMKKAIDSLKEKGFTPVVYKFSDEERPAISEILKDIPDSEALIFGVSTYEAEIHPLMRFTLLEIIDKANYEKPVLVFGVHGWAPSAERTAGELLKETKFRILSFTEIKGSNMDERKIEEAISLLKKELE", "soluble on expression in E. coli": "soluble"},
      {"sequence": "MGSDKIHHHHHHMSFDRPEIYSAPVLQGESPNDDDNTEIIKSFKNFILEFRLDSQFIYRDQLRNNILVKNYSLTVNMEHLIGYNEDIYKKLSDEPSDIIPLFETAITQVAKRISILSRAQSANNNDKDPENTSMDTDSLLLNSLPTFQLILNSNANQIPLRDLDSEHVSKIVRLSGIIISTSVLSSRATYLSIMCRNCRHTTSITINNFNSITGNTVSLPRSCLSTIESESSMANESNIGDESTKKNCGPDPYIIIHESSKFIDQQFLKLQEIPELVPVGEMPRNLTMTCDRYLTNKVIPGTRVTIVGIYSIYNSKNGAGSGRSGGGNGGSGVAIRTPYIKILGIQSDVETSSIWNSVTMFTEEEEEEFLQLSRNPKLYEILTNSIAPSIFGNEDIKKAIVCLLMGGSKKILPDGMRLRGDINVLLLGDPGTAKSQLLKFVEKVSPIAVYTSGKGSSAAGLTASVQRDPMTREFYLEGGAMVLADGGVVCIDEFDKMRDEDRVAIHEAMEQQTISIAKAGITTVLNSRTSVLAAANPIYGRYDDLKSPGDNIDFQTTILSRFDMIFIVKDDHNEERDISIANHVINIHTGNANAMQNQQEENGSEISIEKMKRYITYCRLKCAPRLSPQAAEKLSSNFVTIRKQLLINELESTERSSIPITIRQLEAIIRITESLAKLELSPIAQERHVDEAIRLFQASTMDAASQDPIGGLNQASGTSLSEIRRFEQELKRRLPIGWSTSYQTLRREFVDTHRFSQLALDKALYALEKHETIQLRHQGQNIYRSGV", "soluble on expression in E. coli": "not soluble"},
      {"sequence": "MVYTVDFKEVATIGLESSPVAPALAGLRANEARYFWNKYKHRFTTVPASEAPETLAWIEKILLERELHFPYKPLEISSFTLDGIKMAYVFYENGLAVNVMYTLAEEGKRAVGFKLSDGMAIPAEFEGKFKFARQKSKLAGTIRGSYFVIKGTY", "soluble on expression in E. coli": "soluble"}
    ]}
  ]
}
